Numbering of substitutions follows the chain as printed.

Data on one molecule can be found in patent US20220332804A1 (CSL INNOVATION, published 2022).

Assay in all cases: SPR, KD relative to WT C2;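 note: biacore SPR at 37 °C, anti-C2 mAbs captured via immobilised goat anti-human IgG, C2 alanine or serine surface mutants as analytes, 1:1 model fitted, double-referenced sensograms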
One test concerns the target T1, human C2 E275A (human, UniProt P06681 21-752).
T1 sequence: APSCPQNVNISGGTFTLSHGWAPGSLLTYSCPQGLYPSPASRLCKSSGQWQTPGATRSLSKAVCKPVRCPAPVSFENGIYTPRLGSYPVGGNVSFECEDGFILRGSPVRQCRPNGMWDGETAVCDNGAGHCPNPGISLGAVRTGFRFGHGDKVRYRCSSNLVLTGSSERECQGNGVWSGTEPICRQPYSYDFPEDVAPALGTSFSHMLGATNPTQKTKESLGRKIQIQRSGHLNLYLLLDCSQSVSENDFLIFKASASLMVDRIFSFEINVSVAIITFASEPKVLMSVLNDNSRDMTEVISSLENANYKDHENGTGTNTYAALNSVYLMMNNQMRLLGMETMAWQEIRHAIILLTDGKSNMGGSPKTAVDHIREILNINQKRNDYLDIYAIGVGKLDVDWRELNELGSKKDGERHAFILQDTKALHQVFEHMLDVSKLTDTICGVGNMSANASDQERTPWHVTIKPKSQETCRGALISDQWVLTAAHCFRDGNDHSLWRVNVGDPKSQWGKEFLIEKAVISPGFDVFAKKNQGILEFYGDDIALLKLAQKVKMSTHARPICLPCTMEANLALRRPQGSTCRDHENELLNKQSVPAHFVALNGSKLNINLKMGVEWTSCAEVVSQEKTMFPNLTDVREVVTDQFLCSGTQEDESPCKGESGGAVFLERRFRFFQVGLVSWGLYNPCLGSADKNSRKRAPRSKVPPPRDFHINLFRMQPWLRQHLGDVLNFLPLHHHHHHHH

The next test has as its target T2, human C2 I320A (human, UniProt P06681 21-752).
T2 sequence: T1 sequence with A255E, I300A

The next test addresses T3, human C2 D454A (human, UniProt P06681 21-752).
T3 sequence: T1 sequence with A255E, D434A

A further test deals with T4, human C2 N268A (human, UniProt P06681 21-752).
T4 sequence: T1 sequence with N248A, A255E

B1: RF16-226 (antibody, human IgG4 S228P, lambda)
heavy: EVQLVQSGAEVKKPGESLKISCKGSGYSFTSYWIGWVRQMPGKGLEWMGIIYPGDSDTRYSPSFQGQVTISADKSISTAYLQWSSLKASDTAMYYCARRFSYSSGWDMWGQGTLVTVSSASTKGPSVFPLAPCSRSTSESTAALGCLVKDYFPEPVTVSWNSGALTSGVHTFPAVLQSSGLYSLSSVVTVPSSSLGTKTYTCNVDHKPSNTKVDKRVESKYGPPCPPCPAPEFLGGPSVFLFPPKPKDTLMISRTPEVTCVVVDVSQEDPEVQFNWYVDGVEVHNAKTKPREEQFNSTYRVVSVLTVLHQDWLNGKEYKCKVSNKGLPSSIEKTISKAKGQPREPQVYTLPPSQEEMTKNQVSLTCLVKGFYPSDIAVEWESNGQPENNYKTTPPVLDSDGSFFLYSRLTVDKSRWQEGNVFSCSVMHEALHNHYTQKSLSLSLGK
light: SYELTQPPSVSVSPGQTARITCSGDALTSKYVAWYQQKSGLAPLLVIYEDTRRPSGIPAKFSGSSSGSVATLTISGAHGDDEADYYCYSTDASGHQRVFGGGTKLTVLSQPKAAPSVTLFPPSSEELQANKATLVCLISDFYPGAVTVAWKADGSPVKAGVETTKPSKQSNNKYAASSYLSLTPEQWKSHRSYSCQVTHEGSTVEKTVAPTECS
notes: pH-dependent anti-C2 antibody from a phage display library; also called WT
As to B1, the Fold diff stood at 1 fold in the test with human C2 E275A, 12 fold with human C2 I320A, 25 fold in the test with human C2 D454A and 1 fold with human C2 N268A.
